Assay results published in US10227575B2, “Multi-domain enzymes having cutinase activity, compositions comprising same and uses thereof” (OZYMES, priority 2015, dated 2019).

Columns and labels:
[1] = Adsorption assay on PHB granules (Langmuir isotherm); format: binding
Procedure: Purified KrCUT of concentrations ranging from 0.16 to 3.2 mg/mL were mixed with 25 mg PHB in 50 mM sodium phosphate (pH 8.0) in a total volume of 1 mL and mixed by gently shaking for 3 h. The PHB polymer was removed by centrifugation and the concentration of protein in the supernatant was determined by the BCA method. The concentration of bound protein at a particular concentration of cutinase was calculated as the difference between a control without added PHB and free cutinase after incubation with PHB.
Adsorption assays were carried out following procedures of Kasuya et al. (1999). Purified KrCUT and KrCUT189 at concentrations ranging from 0.16 to 3.2 mg/mL were added to a suspension of 25 mg PHB in 50 mM sodium phosphate (pH 8.0) in a total volume 1 mL. The mixture was incubated at room temperature with gentle shaking for at least 3 h. The PHB polymer was removed by centrifugation and the concentration of protein in the supernatant was determined by the BCA method. The concentration of bound protein at a particular concentration of cutinase was calculated as the difference between a control without added PHB and free cutinase after incubation with PHB. An isotherm of [Bound](mg/mg PHB) vs [Free] (mM) was generated and binding parameters were determined by non-linear regression using the Langmuir equation:
[formula] where [E]=Ead+[E]e, is the concentration of the protein added; Emax is the maximum amount of protein adsorbed on the polyester granules, and K is the adsorption equilibrium constant of the protein.

[2] = pH optimum in Universal Buffer; format: biochemical; conditions: pH 5-11, p-nitrophenyl butyrate
Procedure: (§1) Esterase activity was determined by monitoring the formation of pNP at 410 nm from various pNP-esters using a Beckman UV spectrophotometer (model DU 640) (21). Substrates were dissolved in isopropanol and were added to 50 mM sodium phosphate buffer pH 8.0 to give 10% (v/v) total isopropanol concentration in a 1 mL reaction volume. pNP-butyrate was used at a final concentration of 1.2 mM. For pNP-caprylate, myristate and palmitate, the final concentration ranged from 0.1 to 0.5 mM. The reaction (1 mL) was started by adding an appropriate amount of enzyme. One enzyme unit (U) is defined as the amount of enzyme that produced 1 μmol of product (pNP) per min; specific activity is expressed as U/mg protein. A molar extinction coefficient of 15 mM^−1 cm^−1 for pNP is used for calculating enzyme activity.
Universal Buffer solutions were prepared according to Britton and Robinson (Surinenaite et al., 2002), having the selected pH value from 5-11. Activity of KrCUT and KrCUT189 were measured at the indicated pH, using p-nitrophenyl butyrate as substrate as described in Example 1, section 1.6). Curves were obtained by plotting values of activity against pH.

[3] = Long term stability of KrCUT in culture medium; format: physicochemical; conditions: for Activity (U/mL): culture medium at 4° C.
[4] = Pectin release from hemp fibre (TBA method)
Procedure: Hemp fibres (German variety, 150 mg) were treated with either pectate lyase (PL, 10 U) or PL combined with various amounts of KrCUT (40, 60 and 100 U). Control experiments containing no enzyme or 100 U of KrCUT were conducted for comparison. After incubation at 37° C., aliquots of the reaction mixture were taken at 1 h 30 min and 3 h, and analyzed for pectin degradation products using the thio-barbituric acid (TBA) method (52) which detects released unsaturated compounds spectrophotometrically at 550 nm.
The quantity of pectin released from natural hemp fibre by KrCUT in conjunction with the action of a thermostable pectate lyase was assessed as described in Example 1, section 1.13. The thermostable pectate lyase alone released a certain amount of pectin as expected of the pectinolytic activity (Xiao et al., 2008).

[5] = Potential inhibitors of cutinase activity; format: biochemical
Procedure: as §1
KrCUT cutinase activity was assayed as described in Example 1, section 1.6 in the presence of various chemicals using p-NP palmitate as substrate under standard assay conditions. […] Cu^2+ at 1.0 mM had little effect. The enzyme was not affected by the metal-chelating agent EDTA even at 10 mM. The anionic surfactant SDS was a strong inhibitor of cutinase even at 0.01% retaining only 28% activity. […] Dimethylsulfoxide (at 30%) and dimethylformide (at 5%) inhibited cutinase activity by about 70%.

[6] = Substrate range on p-NP esters, KrCUT versus KrCUT189; format: biochemical
Procedure: as §1

[7] = Degradation of polylactic acid; conditions: 2.5 μM; 2 Units
[8] = KrCUT activity in the presence of chelating agents; format: biochemical
[9] = Thermostability of purified KrCUT (40-60° C.); format: biochemical
Procedure: Enzyme stability was studied over the temperature range of 40-60° C. using purified KrCUT. Aliquots were withdrawn at defined times (10, 30 and 80 min), chilled on ice, and assayed for activity against p-NP butyrate at room temperature. KrCUT appeared thermostable up to 45° C.

B1: KrCUT: mature Kineococcus radiotolerans cutinase, amino acids 34-294 of SEQ ID NO: 1; SEQ ID NO: 6 (protein)
chain: ATCSDVDVVFARGTGETPGLGVVGGPFVRSLTGELSDRTVTSHAVDYAASSSQASAGPGATAMSAHVREVAAACPSTRFVLGGYSQGATVTDIALGIRTGTTTGTPVPAELAGRVAAVVVFGNPLGLSGRTIATASSTYGPKSKDYCNSSDSVCGSAPKTGTGGHLSYASNGSTTDGARFAAGLVRAAGTPTTPTPTPTPTPVPTTCVRDSTRDHVAADRAVSLYGRAYARGSRDSLGATSSYNVVSLQQVEGGWRLVTAC
modifications: Kineococcus radiotolerans; (1)..(261) KrCUT (lacking residues 1-33 of ssKrCUT)
Q: With B1 as the molecule, how does the “binding to PHB” value [1] read?
A: The value was “binds efficiently”.

Q: What about the “degradation of PHB” value [1] of the same molecule?
A: The value was “did not degrade”.

Q: And the “adsorption equilibrium constant (K)” value ([1]; 25° C., pH 8.0)?
A: Its value is 0.12±0.03 ml/mg PHB.

Q: And the “maximum amount of cutinase absorbed on the PHB granules (Emax)” value ([1]; 25° C., pH 8.0)?
A: Its value is 23.68 ± 0.03 µg/mg.

Q: What about the pH optimum [2] of the same molecule?
A: The pH optimum was 8.

Q: And the “Activity (U/mL)” value ([3]; 0 months)?
A: The value was 3.0 ± 0.94 U/mL.

Q: And the “Activity (U/mL)” value ([3]; 3 months)?
A: Its value is 25.67 ± 0.94 U/mL.

Q: What about the “Activity (U/mL)” value ([3]; 4 months) of the same molecule?
A: The value was 17.13 ± 0.70 U/mL.

Q: And the “Activity (U/mL)” value ([3]; 17 months)?
A: The value was 16.66 ± 2.47 U/mL.

Q: And the “Activity (U/mL)” value ([3]; 19 months)?
A: The value was 21.94 U/mL.

Q: And the activity retained ([3]; room temperature, culture medium without additives, 4 months)?
A: Its activity retained is “full activity”.

Q: And the “pectin released from hemp fibre” value ([4]; highest concentration, absence of pectate lyase)?
A: The value was “negligible amounts”.

Q: What about the “pectin degradation products detected” value ([4]; increasing amount of cutinase, fixed pectate lyase) of the same molecule?
A: The value was “higher percentage of pectin degradation products”.

Q: And the effect of para-chloromercuribenzoate ([5]; 0.01 to 1 mM)?
A: Its effect of para-chloromercuribenzoate is “no discernible effect”.

Q: And the “effect of 2-propanol” value ([5]; 2-propanol exceeding 15%)?
A: The value was “strongly reduces enzyme activity”.

Q: What about the “effect of Cu2+” value ([5]; Cu2+ 1.0 mM) of the same molecule?
A: The value was “little effect”.

Q: And the “effect of EDTA” value ([5]; EDTA 10 mM)?
A: The value was “not affected”.

Q: And the “enzyme inhibition by Fe2+” value ([5]; Fe2+ 1 mM)?
A: Its value is 50%.

Q: And the “enzyme inhibition by Mg2+” value ([5]; Mg2+ 10 mM)?
A: Its value is 19%.

Q: What about the “activity retained with SDS” value ([5]; SDS 0.01%) of the same molecule?
A: The value was 28%.

Q: What about the “effect of SDS” value ([5]; SDS 0.1%) of the same molecule?
A: Its value is “complete loss of activity”.

Q: And the effect of alcohols ([5]; concentration above 15-20%)?
A: Its effect of alcohols is “strong inhibiting effect”.

Q: What about the inhibition by dimethylformide ([5]; dimethylformide 5%) of the same molecule?
A: The inhibition by dimethylformide was “about 70%”.

Q: What about the inhibition by dimethylsulfoxide ([5]; dimethylsulfoxide 30%) of the same molecule?
A: The inhibition by dimethylsulfoxide was “about 70%”.

Q: What about the “loss of activity by zinc ion” value ([5]; zinc ion 0.1 mM) of the same molecule?
A: The value was “over 90%”.

Q: And the “effect of zinc ion on cutinase activity” value ([5]; zinc ion 1 mM)?
A: Its value is “complete loss of activity”.

Q: And the “activity towards pNB-acetate” value [6]?
A: Its value is “little activity”.

Q: And the “fold higher activity with pNP butyrate over pNP-palmitate” value [6]?
A: The value was 8 fold.

Q: And the “substrate giving the highest activity” value ([6]; p-NP esters)?
A: The value was “pNP butyrate”.

Q: And the PLA degraded [7]?
A: Its PLA degraded is “approximately 5%”.

Q: What about the “effect of EDTA on KrCUT activity” value ([8]; EDTA 10% w/v) of the same molecule?
A: The value was “does not inhibit”.

Q: What about the “activity retained in the presence of GLDA” value ([8]; GLDA 5% w/v) of the same molecule?
A: Its value is 100%.

Q: What about the “thermostable up to” value ([9]; 10, 30 and 80 min heat treatment) of the same molecule?
A: Its value is “up to 45 °C”.

Q: What about the “activity left after heat treatment” value ([9]; 50° C. and above, 10 min) of the same molecule?
A: Its value is “virtually no activity left”.
